Laboratory results taken from US11208452B2.

Molecular target: human insulin receptor IR-A (solubilised holoreceptor) (human) (UniProt P06213)
Experiment: competition SPA: displacement of [125I-A14Y]-human insulin from solubilised human IR-A, relative to human insulin standard

Substance	Receptor binding (hIRA) SPA, sup % relative to HI (% relative to HI)
A14E, A21G(GAPQ)50, B25H, desB30 human insulin (from UniProt P01308) (ligand)	3.13
A14E, A21G(GEHP)50, B25H, desB30 human insulin (from UniProt P01308) (ligand)	3.1
A14E, A21G(GEPH)50, B25H, desB30 human insulin (from UniProt P01308) (ligand)	3.3
A14E, A21G(GQAP)50, B25H, desB30 human insulin (from UniProt P01308) (ligand)	3.15
A14E, A21G(GQAP)75, B25H, desB30 human insulin (from UniProt P01308) (ligand)	2.41
A14E, A21G(GQAP)150, B25H, desB30 human insulin (from UniProt P01308) (ligand)	2.1
A14E, A21G(GQEP)50, B25H, desB30 human insulin (from UniProt P01308) (ligand)	3
A21G(GAQ)67, desB30 human insulin (from UniProt P01308) (ligand)	6.99
A21G(GAQP)50, desB30 human insulin (from UniProt P01308) (ligand)	4.66
A21G(GEH)67, desB30 human insulin (from UniProt P01308) (ligand)	4.85
A21G(GEPQ)50, desB30 human insulin (from UniProt P01308) (ligand)	8.24
A21G(GEQ)67, desB30 human insulin (from UniProt P01308) (ligand)	8.48
A21G(GEQH)50, desB30 human insulin (from UniProt P01308) (ligand)	7.77
A21G(GEQP)50, desB30 human insulin (from UniProt P01308) (ligand)	9.04
A21G(GHEP)50, desB30 human insulin (from UniProt P01308) (ligand)	4.67
A21G(GHEQ)50, desB30 human insulin (from UniProt P01308) (ligand)	6.7
A21G(GHPE)50, desB30 human insulin (from UniProt P01308) (ligand)	3.47
A21G(GHQE)50, desB30 human insulin (from UniProt P01308) (ligand)	9.41
A21G(GPAQ)50, desB30 human insulin (from UniProt P01308) (ligand)	6.5
A21G(GPEH)50, desB30 human insulin (from UniProt P01308) (ligand)	10.1

Substance	Receptor binding (hIRA) SPA, sup % relative to HI (% relative to HI)
A21G(GPEQ)50, desB30 human insulin (from UniProt P01308) (ligand)	8.18
A21G(GPHE)50, desB30 human insulin (from UniProt P01308) (ligand)	7.85
A21G(GPQA)50, desB30 human insulin (from UniProt P01308) (ligand)	5.05
A21G(GPQE)50, desB30 human insulin (from UniProt P01308) (ligand)	6.53
A21G(GQA)67, desB30 human insulin (from UniProt P01308) (ligand)	4.11
A21G(GQAP)31, desB30 human insulin (from UniProt P01308) (ligand)	4.55
A21G(GQAP)37, desB30 human insulin (from UniProt P01308) (ligand)	5.33
A21G(GQAP)44, desB30 human insulin (from UniProt P01308) (ligand)	6.34
A21G(GQAP)50, desB30 human insulin (from UniProt P01308) (ligand)	4.56
A21G(GQAP)56, desB30 human insulin (from UniProt P01308) (ligand)	3.49
A21G(GQAP)62, desB30 human insulin (from UniProt P01308) (ligand)	4.45
A21G(GQAP)69, desB30 human insulin (from UniProt P01308) (ligand)	4.2
A21G(GQAP)75, desB30 human insulin (from UniProt P01308) (ligand)	4.19
A21G(GQAP)100, desB30 human insulin (from UniProt P01308) (ligand)	3.19
A21G(GQAP)125, desB30 human insulin (from UniProt P01308) (ligand)	2.65
A21G(GQAP)150, desB30 human insulin (from UniProt P01308) (ligand)	2.87
A21G(GQE)67, desB30 human insulin (from UniProt P01308) (ligand)	6.6
A21G(GQEH)50, desB30 human insulin (from UniProt P01308) (ligand)	5.99
A21G(GQEPGQHP)25, desB30 human insulin (from UniProt P01308) (ligand)	4.06
A21G(GQHE)50, desB30 human insulin (from UniProt P01308) (ligand)	7.83

Substance	Receptor binding (hIRA) SPA, sup % relative to HI (% relative to HI)
A21G(GQPA)50, desB30 human insulin (from UniProt P01308) (ligand)	4.26
A21G(GQPE)50, desB30 human insulin (from UniProt P01308) (ligand)	4.09
A21G, A22A, A23P, A24Q(GAPQ)49, desB30 human insulin (from UniProt P01308) (ligand)	9.98
A21G, A22A, A23Q, A24P(GAQP)37, desB30 human insulin (from UniProt P01308) (ligand)	5.71
A21G, A22A, A23Q, A24P(GAQP)49, desB30 human insulin (from UniProt P01308) (ligand)	4.38
A21G, A22A, A23Q, A24P(GAQP)62, desB30 human insulin (from UniProt P01308) (ligand)	3.89
A21G, A22P, A23A, A24Q(GPAQ)49, desB30 human insulin (from UniProt P01308) (ligand)	5.7
A21G, A22P, A23Q, A24A(GPQA)49, desB30 human insulin (from UniProt P01308) (ligand)	5.26
A21G, A22Q, A23A, A24P(GQAP)49, desB30 human insulin (from UniProt P01308) (ligand)	4.92
A21G, A22Q, A23P(GQP)66, desB30 human insulin (from UniProt P01308) (ligand)	0.08
A21G, A22Q, A23P, A24A(GQPA)49, desB30 human insulin (from UniProt P01308) (ligand)	5.53
A21G, B1F(GQAP)50, desB30 human insulin (from UniProt P01308) (ligand)	8.38
A21G, B1F(GQAP)100, desB30 human insulin (from UniProt P01308) (ligand)	4.98
A21Q(GAPQ)50, desB30 human insulin (from UniProt P01308) (ligand)	7.52
A21Q(GEHP)50, desB30 human insulin (from UniProt P01308) (ligand)	5.41
A21Q(GEPH)50, desB30 human insulin (from UniProt P01308) (ligand)	5.09
A21Q(GQAP)50, desB30 human insulin (from UniProt P01308) (ligand)	6.55
A21Q(GQEP)50, desB30 human insulin (from UniProt P01308) (ligand)	8.54
